The sequences below were run on Fer (mouse) (assay: phosphorylation enrichment, bacterial display (enrichment ratio); higher = better substrate or ligand; peptides without Tyr show the background).
Sequence MDQAEYQAKIQ [DHX58_Y518_R523Q] has a phosphorylation enrichment of 0.864. For LDAFIYNAAVL [GRIN2A_Y730_D731N], the phosphorylation enrichment was 1.95. VNTTLYEKFTY [TEK_Y1108] gave a phosphorylation enrichment of 5.72. AALVQYFMEHH [PTPN11_Y80_E76A_YF] showed a phosphorylation enrichment of 0.476. With YGLQAYTKVKT [ALDH2_Y502_E504K] the phosphorylation enrichment was 0.427. For LGQRIYQFIRS [DYRK1B_Y271_Q275R_YF], the phosphorylation enrichment was 5.51. Sequence CTLLPYYSAPV [DGKE_Y269_R273P] has a phosphorylation enrichment of 2.17. GGGGGYNRSSG [FUS_Y232] gave a phosphorylation enrichment of 0.328. LRNRVYEVPVE [SLC26A3_Y756] gave a phosphorylation enrichment of 4.25. For KRISCYEASYQ [PFKFB3_Y194], the phosphorylation enrichment was 0.494. In the case of CSHMFYGKQCC [ADAMTS16_Y1211_K1209M], the phosphorylation enrichment is reported as 0.539. ARMTNYGLPRF [TSPAN12_Y138_YF] was tested, and the phosphorylation enrichment was 0.409. With RGDIFYTSKLW [AKR1C3_Y81_E77G] the phosphorylation enrichment was 0.648. MARDIYRASFF [ALK_Y1278_YF] gave a phosphorylation enrichment of 0.375. Work on GYEEAYSVFKK [PAFAH1B1_Y28] yielded a phosphorylation enrichment of 0.339. LEIETYPRLLD [KRT12_Y429_R430P] was tested, and the phosphorylation enrichment was 0.646. Work on LMQAEYWHDPI [PPT1_Y185_V181M] yielded a phosphorylation enrichment of 0.773. RDSQLYAVDFE [MRPS34_Y34_YF] was tested, and the phosphorylation enrichment was 0.728. In the case of IEDNKYTAREG [HCK_Y411_E410K], the phosphorylation enrichment is reported as 0.392. For ETMNKYDLSGR [MYEF2_Y164], the phosphorylation enrichment was 0.422. With FQKNSYSEELR [LMNA_Y211_I210S] the phosphorylation enrichment was 0.365. Sequence DEEPPYRGPFC [SASH1_Y551] has a phosphorylation enrichment of 0.434. For VRQQDYKKVEE [HADHA_Y283_V282D], the phosphorylation enrichment was 0.376. With AKLDIYKRKVE [VWA3B_Y918_N916D] the phosphorylation enrichment was 0.317. In the case of TLMNAYSSRCH [KIF11_Y231_S235C], the phosphorylation enrichment is reported as 0.535. For NNRVFYGNSDC [RS1_Y177_R182C], the phosphorylation enrichment was 0.432. Sequence GQETSYIEDNC [PAH_Y24] has a phosphorylation enrichment of 0.51. QFLMKYVRSAS [ABCD1_Y337_W339R] showed a phosphorylation enrichment of 0.559. For GSSEDYLHMVH [NIPBL_Y247], the phosphorylation enrichment was 0.416. IFHENYNAGTY [CFI_Y421] showed a phosphorylation enrichment of 1.01. In the case of RGDVIYKGFED [NFU1_Y194_G189R], the phosphorylation enrichment is reported as 0.681. With RAIELYNDKEK [OTULIN_Y244] the phosphorylation enrichment was 0.657. ISSLRYKLLEE [TRPC6_Y896_E897K] showed a phosphorylation enrichment of 0.38.

The sequences below were run against Hck (UniProt P08631) in the same assay as above.
Hck, sequence (P08631 whole entry, looked up): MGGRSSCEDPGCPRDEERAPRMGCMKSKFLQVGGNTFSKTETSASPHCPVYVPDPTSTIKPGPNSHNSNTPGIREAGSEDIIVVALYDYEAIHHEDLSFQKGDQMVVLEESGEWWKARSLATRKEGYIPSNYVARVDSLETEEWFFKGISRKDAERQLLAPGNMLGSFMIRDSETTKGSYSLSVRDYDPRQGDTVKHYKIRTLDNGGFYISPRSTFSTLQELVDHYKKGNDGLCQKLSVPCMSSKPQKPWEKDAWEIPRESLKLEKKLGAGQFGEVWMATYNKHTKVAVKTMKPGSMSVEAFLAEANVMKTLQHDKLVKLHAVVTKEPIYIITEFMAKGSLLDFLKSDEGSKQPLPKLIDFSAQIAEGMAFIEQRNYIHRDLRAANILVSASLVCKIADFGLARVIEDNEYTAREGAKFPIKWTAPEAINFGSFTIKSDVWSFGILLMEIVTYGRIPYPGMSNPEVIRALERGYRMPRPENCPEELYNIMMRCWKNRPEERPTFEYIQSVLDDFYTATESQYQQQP
MDQAEYQAKIQ [DHX58_Y518_R523Q] gave a phosphorylation enrichment of 0.555. Work on LDAFIYNAAVL [GRIN2A_Y730_D731N] yielded a phosphorylation enrichment of 4.05. In the case of VNTTLYEKFTY [TEK_Y1108], the phosphorylation enrichment is reported as 4.55. In the case of AALVQYFMEHH [PTPN11_Y80_E76A_YF], the phosphorylation enrichment is reported as 0.519. With YGLQAYTKVKT [ALDH2_Y502_E504K] the phosphorylation enrichment was 0.377. For LGQRIYQFIRS [DYRK1B_Y271_Q275R_YF], the phosphorylation enrichment was 6.17. With CTLLPYYSAPV [DGKE_Y269_R273P] the phosphorylation enrichment was 1.14. Sequence GGGGGYNRSSG [FUS_Y232] has a phosphorylation enrichment of 0.419. LRNRVYEVPVE [SLC26A3_Y756] showed a phosphorylation enrichment of 1.37. In the case of KRISCYEASYQ [PFKFB3_Y194], the phosphorylation enrichment is reported as 0.529. Work on CSHMFYGKQCC [ADAMTS16_Y1211_K1209M] yielded a phosphorylation enrichment of 0.519. ARMTNYGLPRF [TSPAN12_Y138_YF] was tested, and the phosphorylation enrichment was 0.413. RGDIFYTSKLW [AKR1C3_Y81_E77G] showed a phosphorylation enrichment of 0.46. MARDIYRASFF [ALK_Y1278_YF] showed a phosphorylation enrichment of 0.661. GYEEAYSVFKK [PAFAH1B1_Y28] was tested, and the phosphorylation enrichment was 4.07. In the case of LEIETYPRLLD [KRT12_Y429_R430P], the phosphorylation enrichment is reported as 0.41. LMQAEYWHDPI [PPT1_Y185_V181M] was tested, and the phosphorylation enrichment was 0.769. For RDSQLYAVDFE [MRPS34_Y34_YF], the phosphorylation enrichment was 0.908. In the case of IEDNKYTAREG [HCK_Y411_E410K], the phosphorylation enrichment is reported as 0.469. Work on ETMNKYDLSGR [MYEF2_Y164] yielded a phosphorylation enrichment of 0.448. Work on FQKNSYSEELR [LMNA_Y211_I210S] yielded a phosphorylation enrichment of 0.319. For DEEPPYRGPFC [SASH1_Y551], the phosphorylation enrichment was 0.389. VRQQDYKKVEE [HADHA_Y283_V282D] was tested, and the phosphorylation enrichment was 0.482. With AKLDIYKRKVE [VWA3B_Y918_N916D] the phosphorylation enrichment was 0.414. TLMNAYSSRCH [KIF11_Y231_S235C] showed a phosphorylation enrichment of 0.496. For NNRVFYGNSDC [RS1_Y177_R182C], the phosphorylation enrichment was 0.429. Work on GQETSYIEDNC [PAH_Y24] yielded a phosphorylation enrichment of 0.666. Sequence QFLMKYVRSAS [ABCD1_Y337_W339R] has a phosphorylation enrichment of 0.566. Sequence GSSEDYLHMVH [NIPBL_Y247] has a phosphorylation enrichment of 0.449. Work on IFHENYNAGTY [CFI_Y421] yielded a phosphorylation enrichment of 0.717. RGDVIYKGFED [NFU1_Y194_G189R] showed a phosphorylation enrichment of 1.07. RAIELYNDKEK [OTULIN_Y244] showed a phosphorylation enrichment of 1.08. With ISSLRYKLLEE [TRPC6_Y896_E897K] the phosphorylation enrichment was 0.47.

These sequences were tested against Fes (UniProt P07332) in the same assay as above.
Fes, sequence (P07332 whole entry, looked up): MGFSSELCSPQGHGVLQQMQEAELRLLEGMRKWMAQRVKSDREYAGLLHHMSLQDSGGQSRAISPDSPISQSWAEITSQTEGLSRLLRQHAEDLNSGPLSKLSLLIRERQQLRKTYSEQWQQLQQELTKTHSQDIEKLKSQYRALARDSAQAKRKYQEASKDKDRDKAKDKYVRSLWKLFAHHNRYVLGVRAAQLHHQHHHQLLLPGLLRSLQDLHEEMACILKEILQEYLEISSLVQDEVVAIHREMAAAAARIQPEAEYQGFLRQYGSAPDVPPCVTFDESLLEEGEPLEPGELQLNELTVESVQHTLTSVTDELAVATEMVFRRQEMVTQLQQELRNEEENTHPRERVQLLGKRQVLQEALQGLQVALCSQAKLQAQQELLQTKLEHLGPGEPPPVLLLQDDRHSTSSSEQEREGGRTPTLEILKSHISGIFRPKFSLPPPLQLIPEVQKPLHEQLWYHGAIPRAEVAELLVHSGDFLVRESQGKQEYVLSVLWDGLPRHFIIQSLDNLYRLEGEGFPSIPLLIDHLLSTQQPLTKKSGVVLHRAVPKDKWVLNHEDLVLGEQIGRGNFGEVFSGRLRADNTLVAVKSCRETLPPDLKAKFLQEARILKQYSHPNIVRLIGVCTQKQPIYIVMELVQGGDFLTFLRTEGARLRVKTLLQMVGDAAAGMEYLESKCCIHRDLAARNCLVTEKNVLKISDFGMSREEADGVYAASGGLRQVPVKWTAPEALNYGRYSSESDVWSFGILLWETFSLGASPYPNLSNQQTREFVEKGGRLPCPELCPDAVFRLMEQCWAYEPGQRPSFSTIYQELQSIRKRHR
MDQAEYQAKIQ [DHX58_Y518_R523Q] was tested, and the phosphorylation enrichment was 1.05. For LDAFIYNAAVL [GRIN2A_Y730_D731N], the phosphorylation enrichment was 2.08. Work on VNTTLYEKFTY [TEK_Y1108] yielded a phosphorylation enrichment of 0.879. In the case of AALVQYFMEHH [PTPN11_Y80_E76A_YF], the phosphorylation enrichment is reported as 1.05. Sequence YGLQAYTKVKT [ALDH2_Y502_E504K] has a phosphorylation enrichment of 1.08. Sequence LGQRIYQFIRS [DYRK1B_Y271_Q275R_YF] has a phosphorylation enrichment of 1.19. In the case of CTLLPYYSAPV [DGKE_Y269_R273P], the phosphorylation enrichment is reported as 1.71. In the case of GGGGGYNRSSG [FUS_Y232], the phosphorylation enrichment is reported as 0.503. Work on LRNRVYEVPVE [SLC26A3_Y756] yielded a phosphorylation enrichment of 1.25. With KRISCYEASYQ [PFKFB3_Y194] the phosphorylation enrichment was 0.947. Work on CSHMFYGKQCC [ADAMTS16_Y1211_K1209M] yielded a phosphorylation enrichment of 1.01. In the case of ARMTNYGLPRF [TSPAN12_Y138_YF], the phosphorylation enrichment is reported as 0.636. RGDIFYTSKLW [AKR1C3_Y81_E77G] gave a phosphorylation enrichment of 1.59. MARDIYRASFF [ALK_Y1278_YF] gave a phosphorylation enrichment of 0.797. GYEEAYSVFKK [PAFAH1B1_Y28] showed a phosphorylation enrichment of 0.947. In the case of LEIETYPRLLD [KRT12_Y429_R430P], the phosphorylation enrichment is reported as 1.87. LMQAEYWHDPI [PPT1_Y185_V181M] was tested, and the phosphorylation enrichment was 1.56. RDSQLYAVDFE [MRPS34_Y34_YF] showed a phosphorylation enrichment of 1.58. In the case of IEDNKYTAREG [HCK_Y411_E410K], the phosphorylation enrichment is reported as 1.03. ETMNKYDLSGR [MYEF2_Y164] gave a phosphorylation enrichment of 0.696. FQKNSYSEELR [LMNA_Y211_I210S] gave a phosphorylation enrichment of 0.686. DEEPPYRGPFC [SASH1_Y551] showed a phosphorylation enrichment of 0.895. VRQQDYKKVEE [HADHA_Y283_V282D] was tested, and the phosphorylation enrichment was 0.604. In the case of AKLDIYKRKVE [VWA3B_Y918_N916D], the phosphorylation enrichment is reported as 0.707. For TLMNAYSSRCH [KIF11_Y231_S235C], the phosphorylation enrichment was 0.836. With NNRVFYGNSDC [RS1_Y177_R182C] the phosphorylation enrichment was 0.863. Sequence GQETSYIEDNC [PAH_Y24] has a phosphorylation enrichment of 1.28. Work on QFLMKYVRSAS [ABCD1_Y337_W339R] yielded a phosphorylation enrichment of 1.05. GSSEDYLHMVH [NIPBL_Y247] showed a phosphorylation enrichment of 0.874. IFHENYNAGTY [CFI_Y421] showed a phosphorylation enrichment of 1.02. In the case of RGDVIYKGFED [NFU1_Y194_G189R], the phosphorylation enrichment is reported as 1.03. With RAIELYNDKEK [OTULIN_Y244] the phosphorylation enrichment was 1.51. ISSLRYKLLEE [TRPC6_Y896_E897K] was tested, and the phosphorylation enrichment was 0.986.

These sequences were tested against Jak2 (UniProt O60674) in the same assay as above.
Jak2, sequence (O60674 whole entry, looked up): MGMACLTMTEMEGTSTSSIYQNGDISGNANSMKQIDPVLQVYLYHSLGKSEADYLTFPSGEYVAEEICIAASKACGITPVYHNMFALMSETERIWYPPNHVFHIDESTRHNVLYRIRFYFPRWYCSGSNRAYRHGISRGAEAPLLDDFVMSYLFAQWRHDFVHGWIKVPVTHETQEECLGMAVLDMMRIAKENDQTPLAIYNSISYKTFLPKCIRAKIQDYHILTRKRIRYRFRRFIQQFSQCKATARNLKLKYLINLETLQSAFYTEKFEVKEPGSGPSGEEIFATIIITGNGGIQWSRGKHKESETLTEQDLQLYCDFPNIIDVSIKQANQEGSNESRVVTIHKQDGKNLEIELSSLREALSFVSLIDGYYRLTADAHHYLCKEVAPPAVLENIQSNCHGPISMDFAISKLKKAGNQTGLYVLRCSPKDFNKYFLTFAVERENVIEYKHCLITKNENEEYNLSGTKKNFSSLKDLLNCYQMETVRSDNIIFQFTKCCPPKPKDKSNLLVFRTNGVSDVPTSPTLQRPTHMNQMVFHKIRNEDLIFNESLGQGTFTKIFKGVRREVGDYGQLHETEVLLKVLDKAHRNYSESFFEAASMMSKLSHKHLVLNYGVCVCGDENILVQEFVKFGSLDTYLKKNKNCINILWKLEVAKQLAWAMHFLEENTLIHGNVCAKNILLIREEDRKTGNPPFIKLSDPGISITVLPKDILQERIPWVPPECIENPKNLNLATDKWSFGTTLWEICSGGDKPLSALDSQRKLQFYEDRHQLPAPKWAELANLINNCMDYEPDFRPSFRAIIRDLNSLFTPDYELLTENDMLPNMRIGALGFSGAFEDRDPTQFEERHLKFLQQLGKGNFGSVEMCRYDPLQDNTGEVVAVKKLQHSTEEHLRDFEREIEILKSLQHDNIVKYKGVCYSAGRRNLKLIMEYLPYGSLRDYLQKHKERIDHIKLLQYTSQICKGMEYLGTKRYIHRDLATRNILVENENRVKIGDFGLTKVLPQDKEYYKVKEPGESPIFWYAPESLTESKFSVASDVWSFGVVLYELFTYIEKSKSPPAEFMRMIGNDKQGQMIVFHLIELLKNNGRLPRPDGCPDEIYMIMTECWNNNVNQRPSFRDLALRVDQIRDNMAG
For MDQAEYQAKIQ [DHX58_Y518_R523Q], the phosphorylation enrichment was 0.743. With LDAFIYNAAVL [GRIN2A_Y730_D731N] the phosphorylation enrichment was 0.874. With VNTTLYEKFTY [TEK_Y1108] the phosphorylation enrichment was 0.804. Sequence AALVQYFMEHH [PTPN11_Y80_E76A_YF] has a phosphorylation enrichment of 0.772. YGLQAYTKVKT [ALDH2_Y502_E504K] was tested, and the phosphorylation enrichment was 1.23. LGQRIYQFIRS [DYRK1B_Y271_Q275R_YF] was tested, and the phosphorylation enrichment was 0.887. CTLLPYYSAPV [DGKE_Y269_R273P] showed a phosphorylation enrichment of 1.54. GGGGGYNRSSG [FUS_Y232] was tested, and the phosphorylation enrichment was 0.503. LRNRVYEVPVE [SLC26A3_Y756] showed a phosphorylation enrichment of 2.04. KRISCYEASYQ [PFKFB3_Y194] gave a phosphorylation enrichment of 0.749. CSHMFYGKQCC [ADAMTS16_Y1211_K1209M] was tested, and the phosphorylation enrichment was 0.852. ARMTNYGLPRF [TSPAN12_Y138_YF] gave a phosphorylation enrichment of 0.503. RGDIFYTSKLW [AKR1C3_Y81_E77G] showed a phosphorylation enrichment of 1.33. MARDIYRASFF [ALK_Y1278_YF] gave a phosphorylation enrichment of 0.608. Sequence GYEEAYSVFKK [PAFAH1B1_Y28] has a phosphorylation enrichment of 0.754. LEIETYPRLLD [KRT12_Y429_R430P] showed a phosphorylation enrichment of 1.85. With LMQAEYWHDPI [PPT1_Y185_V181M] the phosphorylation enrichment was 1.16. Work on RDSQLYAVDFE [MRPS34_Y34_YF] yielded a phosphorylation enrichment of 1.09. IEDNKYTAREG [HCK_Y411_E410K] gave a phosphorylation enrichment of 0.788. ETMNKYDLSGR [MYEF2_Y164] was tested, and the phosphorylation enrichment was 0.731. For FQKNSYSEELR [LMNA_Y211_I210S], the phosphorylation enrichment was 0.63. DEEPPYRGPFC [SASH1_Y551] showed a phosphorylation enrichment of 0.697. In the case of VRQQDYKKVEE [HADHA_Y283_V282D], the phosphorylation enrichment is reported as 0.564. AKLDIYKRKVE [VWA3B_Y918_N916D] gave a phosphorylation enrichment of 0.475. In the case of TLMNAYSSRCH [KIF11_Y231_S235C], the phosphorylation enrichment is reported as 0.776. NNRVFYGNSDC [RS1_Y177_R182C] showed a phosphorylation enrichment of 0.862. Work on GQETSYIEDNC [PAH_Y24] yielded a phosphorylation enrichment of 1.15. QFLMKYVRSAS [ABCD1_Y337_W339R] showed a phosphorylation enrichment of 1.2. Sequence GSSEDYLHMVH [NIPBL_Y247] has a phosphorylation enrichment of 0.874. With IFHENYNAGTY [CFI_Y421] the phosphorylation enrichment was 0.783. Work on RGDVIYKGFED [NFU1_Y194_G189R] yielded a phosphorylation enrichment of 0.815. In the case of RAIELYNDKEK [OTULIN_Y244], the phosphorylation enrichment is reported as 1.69. Work on ISSLRYKLLEE [TRPC6_Y896_E897K] yielded a phosphorylation enrichment of 0.64.
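Also: 11-residue human phosphosite peptides and single-mutation variants displayed on the E. coli surface, counted by deep sequencing, each peptide's frequency after selection divided by its frequency in the unselected input library; frequency after pTyr selection over input frequency; kinase dosed for 20-30% of maximal phosphorylation in three min.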
